Results published in patent US20210032299A1 (Eli Lilly, published 2021).
Starred links: 1 amine or outer side, 2 acyl side, 3 side chain; linkers in the order of their positions; H or OH if unused. Non-standard residues stand in square brackets, D forms with d. Groups on a side chain read outwards from the residue. No end group written: not given here. *: point of attachment. C20 diacid = O=C(O)CCCCCCCCCCCCCCCCCCC(=O)*; γGlu = O=C(O)[C@H](CCC(=O)[*:2])N[*:1]; αMeF = C[C@](N)(Cc1ccccc1)C(=O)O; 4Pal = N[C@@H](Cc1ccncc1)C(=O)O; αMeL = CC(C)C[C@](C)(N)C(=O)O; AEEA = NCCOCCOCC(=O)O; Aib = CC(C)(N)C(=O)O

Assays:
Test in all cases: cell-based or functional assay
human glucagon receptor = human glucagon receptor (human, UniProt P47871 26-477)
human glucagon receptor, sequence (P47871 26-477): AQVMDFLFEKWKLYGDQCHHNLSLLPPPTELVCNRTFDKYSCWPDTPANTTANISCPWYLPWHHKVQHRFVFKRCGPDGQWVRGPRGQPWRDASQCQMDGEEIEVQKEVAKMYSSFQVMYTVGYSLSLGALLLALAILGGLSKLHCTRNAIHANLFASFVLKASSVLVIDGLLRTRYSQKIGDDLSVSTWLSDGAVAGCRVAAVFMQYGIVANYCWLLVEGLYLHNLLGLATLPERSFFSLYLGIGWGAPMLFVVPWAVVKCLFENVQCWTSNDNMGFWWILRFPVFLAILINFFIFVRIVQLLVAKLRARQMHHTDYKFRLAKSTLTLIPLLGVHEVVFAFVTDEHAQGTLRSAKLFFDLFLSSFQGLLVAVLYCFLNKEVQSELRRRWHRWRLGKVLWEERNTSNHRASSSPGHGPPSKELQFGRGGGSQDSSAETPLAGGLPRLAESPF

[1] = biological target: T1, human glucose-dependent insulinotropic peptide receptor (human, UniProt P48546 22-466)
T1 sequence (looked up): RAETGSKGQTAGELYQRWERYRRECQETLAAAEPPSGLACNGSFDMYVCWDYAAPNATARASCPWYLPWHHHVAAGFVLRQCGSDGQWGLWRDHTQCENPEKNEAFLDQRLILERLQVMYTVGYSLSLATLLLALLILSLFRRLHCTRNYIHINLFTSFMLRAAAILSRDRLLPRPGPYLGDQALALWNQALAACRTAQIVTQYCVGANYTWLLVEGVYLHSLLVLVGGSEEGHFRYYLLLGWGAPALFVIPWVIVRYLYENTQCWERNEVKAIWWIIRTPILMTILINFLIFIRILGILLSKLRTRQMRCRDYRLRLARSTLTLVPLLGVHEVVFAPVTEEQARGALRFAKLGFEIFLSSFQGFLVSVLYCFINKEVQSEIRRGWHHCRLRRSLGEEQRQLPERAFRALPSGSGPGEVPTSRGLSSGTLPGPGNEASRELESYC

human GLP-1 receptor = human GLP-1 receptor (human, UniProt P43220 24-463)

Row | Binder | hGcgR cAMP Rel EC50 (human glucagon receptor) [nM] | hGIPR cAMP Rel EC50 [1] [nM] | hGLP1R cAMP Rel EC50 (human GLP-1 receptor) [nM]
1 | Y[Aib]EGTFISDYSI[αMeL]LDKK([AEEA-AEEA-γGlu-C20 diacid])HQ[Aib]DFVEWLLAGGPSSGAPPPS-NH2 (N-terminus assumed; SMILES CC[C@H](C)[C@H](NC(=O)[C@H](Cc1ccccc1)NC(=O)[C@@H](NC(=O)CNC(=O)[C@H](CCC(=O)O)NC(=O)C(C)(C)NC(=O)[C@@H](N)Cc1ccc(O)cc1)[C@@H](C)O)C(=O)N[C@@H](CO)C(=O)N[C@@H](CC(=O)O)C(=O)N[C@@H](Cc1ccc(O)cc1)C(=O)N[C@@H](CO)C(=O)N[C@H](C(=O)N[C@@](C)(CC(C)C)C(=O)N[C@@H](CC(C)C)C(=O)N[C@@H](CC(=O)O)C(=O)N[C@@H](CCCCN)C(=O)N[C@@H](CCCCNC(=O)COCCOCCNC(=O)COCCOCCNC(=O)CC[C@H](NC(=O)CCCCCCCCCCCCCCCCCCC(=O)O)C(=O)O)C(=O)N[C@@H](Cc1c[nH]cn1)C(=O)N[C@@H](CCC(N)=O)C(=O)NC(C)(C)C(=O)N[C@@H](CC(=O)O)C(=O)N[C@@H](Cc1ccccc1)C(=O)N[C@H](C(=O)N[C@@H](CCC(=O)O)C(=O)N[C@@H](Cc1c[nH]c2ccccc12)C(=O)N[C@@H](CC(C)C)C(=O)N[C@@H](CC(C)C)C(=O)N[C@@H](C)C(=O)NCC(=O)NCC(=O)N1CCC[C@H]1C(=O)N[C@@H](CO)C(=O)N[C@@H](CO)C(=O)NCC(=O)N[C@@H](C)C(=O)N1CCC[C@H]1C(=O)N1CCC[C@H]1C(=O)N1CCC[C@H]1C(=O)N[C@@H](CO)C(N)=O)C(C)C)[C@@H](C)CC) [Example 54] | > 5000 | 0.054 | > 5000
2 | YXEGTXISDYSIXLDKKHQXDFVEXLLAGGPSSGAPPPS (Aib2; Iva6; αMeL13; K17((2-[2-(2-Amino-ethoxy)-ethoxy]-acetyl)2-(γ-Glu)-CO-(CH2)18-CO2H); Aib20; 4-Pal25; C-terminal amide) [Example 55] | > 5000 | 0.017 | > 5000
3 | Y[Aib]EGTFISDYSI[αMeL]LDKK([AEEA-AEEA-γGlu-C20 diacid])HQ[Aib]D[αMeF]VE[4Pal]LLAGGPSSGAPPPS-NH2 (N-terminus assumed; SMILES CC[C@H](C)[C@H](NC(=O)[C@H](Cc1ccccc1)NC(=O)[C@@H](NC(=O)CNC(=O)[C@H](CCC(=O)O)NC(=O)C(C)(C)NC(=O)[C@@H](N)Cc1ccc(O)cc1)[C@@H](C)O)C(=O)N[C@@H](CO)C(=O)N[C@@H](CC(=O)O)C(=O)N[C@@H](Cc1ccc(O)cc1)C(=O)N[C@@H](CO)C(=O)N[C@H](C(=O)N[C@@](C)(CC(C)C)C(=O)N[C@@H](CC(C)C)C(=O)N[C@@H](CC(=O)O)C(=O)N[C@@H](CCCCN)C(=O)N[C@@H](CCCCNC(=O)COCCOCCNC(=O)COCCOCCNC(=O)CC[C@H](NC(=O)CCCCCCCCCCCCCCCCCCC(=O)O)C(=O)O)C(=O)N[C@@H](Cc1c[nH]cn1)C(=O)N[C@@H](CCC(N)=O)C(=O)NC(C)(C)C(=O)N[C@@H](CC(=O)O)C(=O)N[C@@](C)(Cc1ccccc1)C(=O)N[C@H](C(=O)N[C@@H](CCC(=O)O)C(=O)N[C@@H](Cc1ccncc1)C(=O)N[C@@H](CC(C)C)C(=O)N[C@@H](CC(C)C)C(=O)N[C@@H](C)C(=O)NCC(=O)NCC(=O)N1CCC[C@H]1C(=O)N[C@@H](CO)C(=O)N[C@@H](CO)C(=O)NCC(=O)N[C@@H](C)C(=O)N1CCC[C@H]1C(=O)N1CCC[C@H]1C(=O)N1CCC[C@H]1C(=O)N[C@@H](CO)C(N)=O)C(C)C)[C@@H](C)CC) [Example 56] | > 5000 | 0.0169 | > 5000
4 | Y[Aib]EGTFISDYSI[αMeL]LDKK([AEEA-AEEA-γGlu-C20 diacid])HQ[Aib]EFVE[4Pal]LLAQGPSSGAPPPS-NH2 (N-terminus assumed; SMILES CC[C@H](C)[C@H](NC(=O)[C@H](Cc1ccccc1)NC(=O)[C@@H](NC(=O)CNC(=O)[C@H](CCC(=O)O)NC(=O)C(C)(C)NC(=O)[C@@H](N)Cc1ccc(O)cc1)[C@@H](C)O)C(=O)N[C@@H](CO)C(=O)N[C@@H](CC(=O)O)C(=O)N[C@@H](Cc1ccc(O)cc1)C(=O)N[C@@H](CO)C(=O)N[C@H](C(=O)N[C@@](C)(CC(C)C)C(=O)N[C@@H](CC(C)C)C(=O)N[C@@H](CC(=O)O)C(=O)N[C@@H](CCCCN)C(=O)N[C@@H](CCCCNC(=O)COCCOCCNC(=O)COCCOCCNC(=O)CC[C@H](NC(=O)CCCCCCCCCCCCCCCCCCC(=O)O)C(=O)O)C(=O)N[C@@H](Cc1c[nH]cn1)C(=O)N[C@@H](CCC(N)=O)C(=O)NC(C)(C)C(=O)N[C@@H](CCC(=O)O)C(=O)N[C@@H](Cc1ccccc1)C(=O)N[C@H](C(=O)N[C@@H](CCC(=O)O)C(=O)N[C@@H](Cc1ccncc1)C(=O)N[C@@H](CC(C)C)C(=O)N[C@@H](CC(C)C)C(=O)N[C@@H](C)C(=O)N[C@@H](CCC(N)=O)C(=O)NCC(=O)N1CCC[C@H]1C(=O)N[C@@H](CO)C(=O)N[C@@H](CO)C(=O)NCC(=O)N[C@@H](C)C(=O)N1CCC[C@H]1C(=O)N1CCC[C@H]1C(=O)N1CCC[C@H]1C(=O)N[C@@H](CO)C(N)=O)C(C)C)[C@@H](C)CC) [Example 57] | 886 | 0.0177 | > 5000
5 | Y[Aib]EGTFISDYSI[αMeL]LDKK([AEEA-AEEA-γGlu-C20 diacid])HQ[Aib]EFVE[4Pal]LLATGPSSGAPPPS-NH2 (N-terminus assumed; SMILES CC[C@H](C)[C@H](NC(=O)[C@H](Cc1ccccc1)NC(=O)[C@@H](NC(=O)CNC(=O)[C@H](CCC(=O)O)NC(=O)C(C)(C)NC(=O)[C@@H](N)Cc1ccc(O)cc1)[C@@H](C)O)C(=O)N[C@@H](CO)C(=O)N[C@@H](CC(=O)O)C(=O)N[C@@H](Cc1ccc(O)cc1)C(=O)N[C@@H](CO)C(=O)N[C@H](C(=O)N[C@@](C)(CC(C)C)C(=O)N[C@@H](CC(C)C)C(=O)N[C@@H](CC(=O)O)C(=O)N[C@@H](CCCCN)C(=O)N[C@@H](CCCCNC(=O)COCCOCCNC(=O)COCCOCCNC(=O)CC[C@H](NC(=O)CCCCCCCCCCCCCCCCCCC(=O)O)C(=O)O)C(=O)N[C@@H](Cc1c[nH]cn1)C(=O)N[C@@H](CCC(N)=O)C(=O)NC(C)(C)C(=O)N[C@@H](CCC(=O)O)C(=O)N[C@@H](Cc1ccccc1)C(=O)N[C@H](C(=O)N[C@@H](CCC(=O)O)C(=O)N[C@@H](Cc1ccncc1)C(=O)N[C@@H](CC(C)C)C(=O)N[C@@H](CC(C)C)C(=O)N[C@@H](C)C(=O)N[C@H](C(=O)NCC(=O)N1CCC[C@H]1C(=O)N[C@@H](CO)C(=O)N[C@@H](CO)C(=O)NCC(=O)N[C@@H](C)C(=O)N1CCC[C@H]1C(=O)N1CCC[C@H]1C(=O)N1CCC[C@H]1C(=O)N[C@@H](CO)C(N)=O)[C@@H](C)O)C(C)C)[C@@H](C)CC) [Example 58] | > 5000 | 0.0183 | > 5000
6 | Y[Aib]EGTFISDYSI[αMeL]LDKK([AEEA-AEEA-γGlu-C20 diacid])HQ[Aib]EFVE[4Pal]LLAAGPSSGAPPPS-NH2 (N-terminus assumed; SMILES CC[C@H](C)[C@H](NC(=O)[C@H](Cc1ccccc1)NC(=O)[C@@H](NC(=O)CNC(=O)[C@H](CCC(=O)O)NC(=O)C(C)(C)NC(=O)[C@@H](N)Cc1ccc(O)cc1)[C@@H](C)O)C(=O)N[C@@H](CO)C(=O)N[C@@H](CC(=O)O)C(=O)N[C@@H](Cc1ccc(O)cc1)C(=O)N[C@@H](CO)C(=O)N[C@H](C(=O)N[C@@](C)(CC(C)C)C(=O)N[C@@H](CC(C)C)C(=O)N[C@@H](CC(=O)O)C(=O)N[C@@H](CCCCN)C(=O)N[C@@H](CCCCNC(=O)COCCOCCNC(=O)COCCOCCNC(=O)CC[C@H](NC(=O)CCCCCCCCCCCCCCCCCCC(=O)O)C(=O)O)C(=O)N[C@@H](Cc1c[nH]cn1)C(=O)N[C@@H](CCC(N)=O)C(=O)NC(C)(C)C(=O)N[C@@H](CCC(=O)O)C(=O)N[C@@H](Cc1ccccc1)C(=O)N[C@H](C(=O)N[C@@H](CCC(=O)O)C(=O)N[C@@H](Cc1ccncc1)C(=O)N[C@@H](CC(C)C)C(=O)N[C@@H](CC(C)C)C(=O)N[C@@H](C)C(=O)N[C@@H](C)C(=O)NCC(=O)N1CCC[C@H]1C(=O)N[C@@H](CO)C(=O)N[C@@H](CO)C(=O)NCC(=O)N[C@@H](C)C(=O)N1CCC[C@H]1C(=O)N1CCC[C@H]1C(=O)N1CCC[C@H]1C(=O)N[C@@H](CO)C(N)=O)C(C)C)[C@@H](C)CC) [Example 59] | > 5000 | 0.0202 | > 5000
